Results from patent publication US20250003976A1, “ANTIBODIES TARGETING PHOSPHORYLATED SEVEN-TRANSMEMBRANE RECEPTORS” (7TM ANTIBODIES GMBH, priority 2021, published 2025).

Columns and labels:
μ-opioid receptor (MOP) = μ-opioid receptor (MOP) (Mus musculus, UniProt P42866)
MOP [1] = target: T1, MOP (Mus musculus, UniProt P42866); conditions: 60 min of agonist exposure
MOP [2] = target: T1, MOP; conditions: 60 min of agonist exposure; remark: listed apart in the source
[3] = target: hemagglutinin (HA)-tagged mouse µ-opioid receptor (MOP), not phosphorylated (mouse) (UniProt P42866); test: saturation binding of [3H]DAMGO to membranes of HA-MOP-transfected HEK293 cells
Sequence of hemagglutinin (HA)-tagged mouse µ-opioid receptor (MOP), not phosphorylated (mouse) (P42866 whole entry): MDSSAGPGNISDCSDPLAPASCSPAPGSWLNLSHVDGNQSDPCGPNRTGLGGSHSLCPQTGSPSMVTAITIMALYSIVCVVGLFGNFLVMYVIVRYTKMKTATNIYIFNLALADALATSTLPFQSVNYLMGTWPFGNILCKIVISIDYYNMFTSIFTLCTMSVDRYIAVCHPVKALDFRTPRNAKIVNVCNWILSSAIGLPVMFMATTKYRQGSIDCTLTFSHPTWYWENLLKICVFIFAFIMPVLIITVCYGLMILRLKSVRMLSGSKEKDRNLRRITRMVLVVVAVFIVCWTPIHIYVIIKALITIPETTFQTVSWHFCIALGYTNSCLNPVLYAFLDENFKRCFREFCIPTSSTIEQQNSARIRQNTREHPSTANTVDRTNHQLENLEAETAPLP

[4] = target: hemagglutinin (HA)-tagged mouse µ-opioid receptor (MOP), not phosphorylated (mouse) (UniProt P42866); test: 7TM phosphorylation assay: HA-MOP of untreated cells on anti-HA magnetic beads
[5] = target: hemagglutinin (HA)-tagged mouse µ-opioid receptor (MOP), phosphorylated after DAMGO stimulation (mouse) (UniProt P42866); test: 7TM phosphorylation assay: HA-MOP of DAMGO-treated cells on anti-HA magnetic beads
[6] = target: hemagglutinin (HA)-tagged mouse µ-opioid receptor (MOP), phosphorylated after DAMGO stimulation (mouse) (UniProt P42866); test: 7TM phosphorylation assay: HA-MOP on anti-HA magnetic beads, rabbit primary antibody, enzyme-labeled secondary antibody

T1 sequence (P42866 whole entry): as above
Sequence of μ-opioid receptor (MOP) (P42866 whole entry): as above

C[C@@H](NC(=O)[C@@H](N)Cc1ccc(O)cc1)C(=O)NCC(=O)N(C)[C@@H](Cc1ccccc1)C(=O)NCCO [DAMGO, [D-Ala2,N-MePhe4,Gly-ol]-enkephalin]
extent of MOP phosphorylation resulting from GRK2/3 recruitment (μ-opioid receptor (MOP)): full phosphorylation | recruitment of GRK2 and GRK3 to MOP (MOP [1]): high efficiency | β-arrestin1 and β-arrestin2 recruitment (MOP [2]): virtually identical to those of DAMGO-induced MOP phosphorylation

CCCCCCCCCCCCCC(=O)O[C@@H]1[C@@H](C)[C@@]2(O)[C@@H](C=C(CO)C[C@]3(O)C(=O)C(C)=C[C@@H]23)[C@@H]2C(C)(C)[C@]12OC(C)=O [PMA, phorbol 12-myristate 13-acetate]
T370 phosphorylation of MOP (heterologous, PKC activation) (μ-opioid receptor (MOP)): potent and selective phosphorylation of T370

[D-Ala2,N-MePhe4,Gly-ol]-enkephalin (DAMGO) (peptide)
functional MOPs per cell (saturation binding) (MOPs per cell) [3]: 300000

anti-np-MOP antibody (7TM0319N)
optical density (OD) read at 405 nm [4]: 0.8 OD at 405 nm | optical density (OD) read at 405 nm [5]: 0.8 OD at 405 nm

anti-pS375-MOP antibody (7TM0319C)
optical density (OD) read at 405 nm [4]: 0.2 OD at 405 nm | optical density (OD) read at 405 nm [6]: 1.2 OD at 405 nm
